Patent US20030215838A1

What was measured:
[1] = target: human zcytor17 and OSMRbeta co-expressed on transfected cells (human); experiment: cell-based or functional assay
[2] = target: human zcytor17, OSMRbeta and WSX-1 co-expressed on transfected cells (human); experiment: cell-based or functional assay
[3] = target: human OSMRbeta, full length, on transfected cells (human); experiment: flow cytometry; biotinylated zcytor17L at 2.0 µg/mL on BHK cells with OSMRbeta alone, SA-PE
[4] = target: human OSMRbeta, full length, on transfected cells (human); experiment: flow cytometry; biotinylated zcytor17L at 1.11 µg/mL on BAF3 cells with OSMRbeta alone, SA-PE
[5] = target: human zcytor17 receptor, full length, on transfected cells (human); experiment: flow cytometry; biotinylated zcytor17L at 0.00001 µg/mL on BHK cells with zcytor17 alone, SA-PE
[6] = target: human zcytor17 and OSMRbeta co-expressed on transfected cells (human); experiment: flow cytometry; biotinylated zcytor17L at 0.37 µg/mL on BAF3 cells with zcytor17 + OSMRbeta, SA-PE
[7] = target: human zcytor17 and OSMRbeta co-expressed on transfected cells (human); experiment: flow cytometry; biotinylated zcytor17L at 10.0 µg/mL on BAF3 cells with zcytor17 + OSMRbeta, SA-PE
[8] = target: human zcytor17 and OSMRbeta co-expressed on transfected cells (human); experiment: flow cytometry; no ligand (0.00 µg/mL, background) on BAF3 cells with zcytor17 + OSMRbeta, SA-PE
[9] = target: human zcytor17 receptor, full length, on transfected cells (human); experiment: flow cytometry; biotinylated zcytor17L at 0.000001 µg/mL on BHK cells with zcytor17 alone, SA-PE
[10] = target: human zcytor17 receptor, full length, on transfected cells (human); experiment: flow cytometry; biotinylated zcytor17L at 0.100 µg/mL on BHK cells with zcytor17 alone, SA-PE
[11] = target: human OSMRbeta, full length, on transfected cells (human); experiment: flow cytometry; no ligand (0.00 µg/mL, background) on BAF3 cells with OSMRbeta alone, SA-PE
[12] = target: human zcytor17 and OSMRbeta co-expressed on transfected cells (human); experiment: flow cytometry; biotinylated zcytor17L at 0.0001 µg/mL on BHK cells with zcytor17 + OSMRbeta, SA-PE
[13] = target: human zcytor17 and OSMRbeta co-expressed on transfected cells (human); experiment: flow cytometry; biotinylated zcytor17L at 1.11 µg/mL on BAF3 cells with zcytor17 + OSMRbeta, SA-PE
[14] = target: human zcytor17 receptor, full length, on transfected cells (human); experiment: flow cytometry; biotinylated zcytor17L at 0.0001 µg/mL on BHK cells with zcytor17 alone, SA-PE
[15] = target: human zcytor17 and OSMRbeta co-expressed on transfected cells (human); experiment: flow cytometry; biotinylated zcytor17L at 0.04 µg/mL on BAF3 cells with zcytor17 + OSMRbeta, SA-PE
[16] = target: human zcytor17 and OSMRbeta co-expressed on transfected cells (human); experiment: flow cytometry; biotinylated zcytor17L at 2.0 µg/mL on BHK cells with zcytor17 + OSMRbeta, SA-PE
[17] = target: human zcytor17 and OSMRbeta co-expressed on transfected cells (human); experiment: flow cytometry; no ligand (0.0 µg/mL, background) on BHK cells with zcytor17 + OSMRbeta, SA-PE
[18] = target: human zcytor17 and OSMRbeta co-expressed on transfected cells (human); experiment: flow cytometry; biotinylated zcytor17L at 0.000001 µg/mL on BHK cells with zcytor17 + OSMRbeta, SA-PE
[19] = target: human OSMRbeta, full length, on transfected cells (human); experiment: flow cytometry; no ligand (0.0 µg/mL, background) on BHK cells with OSMRbeta alone, SA-PE
[20] = target: human OSMRbeta, full length, on transfected cells (human); experiment: flow cytometry; biotinylated zcytor17L at 10.0 µg/mL on BAF3 cells with OSMRbeta alone, SA-PE
[21] = target: human zcytor17 receptor, full length, on transfected cells (human); experiment: flow cytometry; biotinylated zcytor17L at 10.0 ng/mL on BAF3 cells with zcytor17 alone, SA-PE
[22] = target: human zcytor17 and OSMRbeta co-expressed on transfected cells (human); experiment: flow cytometry; biotinylated zcytor17L at 0.100 µg/mL on BHK cells with zcytor17 + OSMRbeta, SA-PE
[23] = target: human OSMRbeta, full length, on transfected cells (human); experiment: flow cytometry; biotinylated zcytor17L at 0.12 µg/mL on BAF3 cells with OSMRbeta alone, SA-PE
[24] = target: human OSMRbeta, full length, on transfected cells (human); experiment: flow cytometry; biotinylated zcytor17L at 0.37 µg/mL on BAF3 cells with OSMRbeta alone, SA-PE
[25] = target: human zcytor17 receptor, full length, on transfected cells (human); experiment: flow cytometry; biotinylated zcytor17L at 1.0 ng/mL on BAF3 cells with zcytor17 alone, SA-PE
[26] = target: human zcytor17 receptor, full length, on transfected cells (human); experiment: flow cytometry; no ligand (0.0 µg/mL, background) on BHK cells with zcytor17 alone, SA-PE
[27] = target: human zcytor17 receptor, full length, on transfected cells (human); experiment: flow cytometry; biotinylated zcytor17L at 0.001 µg/mL on BHK cells with zcytor17 alone, SA-PE
[28] = target: human zcytor17 and OSMRbeta co-expressed on transfected cells (human); experiment: flow cytometry; biotinylated zcytor17L at 0.12 µg/mL on BAF3 cells with zcytor17 + OSMRbeta, SA-PE
[29] = target: human zcytor17 and OSMRbeta co-expressed on transfected cells (human); experiment: flow cytometry; biotinylated zcytor17L at 0.010 µg/mL on BHK cells with zcytor17 + OSMRbeta, SA-PE
[30] = target: human zcytor17 and OSMRbeta co-expressed on transfected cells (human); experiment: flow cytometry; biotinylated zcytor17L at 0.00001 µg/mL on BHK cells with zcytor17 + OSMRbeta, SA-PE
[31] = target: human OSMRbeta, full length, on transfected cells (human); experiment: flow cytometry; biotinylated zcytor17L at 3.33 µg/mL on BAF3 cells with OSMRbeta alone, SA-PE
[32] = target: human zcytor17 and OSMRbeta co-expressed on transfected cells (human); experiment: flow cytometry; biotinylated zcytor17L at 0.001 µg/mL on BHK cells with zcytor17 + OSMRbeta, SA-PE
[33] = target: human zcytor17 and OSMRbeta co-expressed on transfected cells (human); experiment: flow cytometry; biotinylated zcytor17L at 3.33 µg/mL on BAF3 cells with zcytor17 + OSMRbeta, SA-PE
[34] = target: human OSMRbeta, full length, on transfected cells (human); experiment: flow cytometry; biotinylated zcytor17L at 0.04 µg/mL on BAF3 cells with OSMRbeta alone, SA-PE
[35] = target: human zcytor17 receptor, full length, on transfected cells (human); experiment: flow cytometry; biotinylated zcytor17L at 100.0 ng/mL on BAF3 cells with zcytor17 alone, SA-PE
[36] = target: human zcytor17 receptor, full length, on transfected cells (human); experiment: flow cytometry; biotinylated zcytor17L at 2.0 µg/mL on BHK cells with zcytor17 alone, SA-PE
[37] = target: human zcytor17 receptor, full length, on transfected cells (human); experiment: flow cytometry; biotinylated zcytor17L at 0.010 µg/mL on BHK cells with zcytor17 alone, SA-PE
[38] = target: human zcytor17 receptor, full length, on transfected cells (human); experiment: flow cytometry; no ligand (0.0 ng/mL, background) on BAF3 cells with zcytor17 alone, SA-PE

Question: What does the source list for “human zcytor17lig (untagged, in conditioned media) (ligand)”?
Answer: proliferation of BaF3/zcytor17/OSMRbeta cells, Alamar Blue (activated CCRF-CEM and CCRF-HSB2 conditioned media) (fold over background) [1]: 10; proliferation of BaF3/zcytor17/OSMRbeta cells, Alamar Blue (activated CD3+ selected human cell conditioned media) (fold over background) [1]: 15; proliferation of BaF3/zcytor17/WSX-1/OSMRbeta cells, Alamar Blue (activated CCRF-CEM and CCRF-HSB2 conditioned media) (fold over background) [2]: 10; proliferation of BaF3/zcytor17/WSX-1/OSMRbeta cells, Alamar Blue (activated CD3+ selected human cell conditioned media) (fold over background) [2]: 15

B1: biotinylated human zcytor17 ligand (ligand)
chain: LPVRLLRPSDDVQKIVEELQSLSKMLLKDVEEEKGVLVSQNYTLPCLSPDAQPPNNIHSPAIRAYLKTIRQLDNKSVIDEIIEHLDKLIFQDAPETNISVPTDTHECKRFILTISQQFSECMDLALKSLTSGAQQATT
modifications: biotin
Question: Which mean fluorescent intensity (MFI) [3] does the source give for B1 here?
Answer: 13

Question: And the mean fluorescent intensity (MFI) [4]?
Answer: 5

Question: What about the mean fluorescent intensity (MFI) [5] of the same molecule?
Answer: 15

Question: What about the mean fluorescent intensity (MFI) [6] of the same molecule?
Answer: 441

Question: What about the mean fluorescent intensity (MFI) [7] of the same molecule?
Answer: 531

Question: What about the mean fluorescent intensity (MFI) [8] of the same molecule?
Answer: 7

Question: What about the mean fluorescent intensity (MFI) [9] of the same molecule?
Answer: 14

Question: What about the mean fluorescent intensity (MFI) [10] of the same molecule?
Answer: 1600

Question: What about the mean fluorescent intensity (MFI) [11] of the same molecule?
Answer: 11

Question: What about the mean fluorescent intensity (MFI) [12] of the same molecule?
Answer: 17

Question: What about the mean fluorescent intensity (MFI) [13] of the same molecule?
Answer: 489

Question: And the mean fluorescent intensity (MFI) [14]?
Answer: 16

Question: And the mean fluorescent intensity (MFI) [15]?
Answer: 247

Question: And the mean fluorescent intensity (MFI) [16]?
Answer: 3780

Question: What about the mean fluorescent intensity (MFI) [17] of the same molecule?
Answer: 13

Question: And the mean fluorescent intensity (MFI) [18]?
Answer: 14

Question: And the mean fluorescent intensity (MFI) [19]?
Answer: 0

Question: What about the mean fluorescent intensity (MFI) [20] of the same molecule?
Answer: 6

Question: And the mean fluorescent intensity (MFI) [21]?
Answer: 72

Question: And the mean fluorescent intensity (MFI) [22]?
Answer: 2130

Question: And the mean fluorescent intensity (MFI) [23]?
Answer: 5

Question: And the mean fluorescent intensity (MFI) [24]?
Answer: 5

Question: And the mean fluorescent intensity (MFI) [25]?
Answer: 17

Question: And the mean fluorescent intensity (MFI) [26]?
Answer: 15

Question: What about the mean fluorescent intensity (MFI) [27] of the same molecule?
Answer: 39

Question: And the mean fluorescent intensity (MFI) [28]?
Answer: 364

Question: And the mean fluorescent intensity (MFI) [29]?
Answer: 328

Question: And the mean fluorescent intensity (MFI) [30]?
Answer: 15

Question: And the mean fluorescent intensity (MFI) [31]?
Answer: 5

Question: And the mean fluorescent intensity (MFI) [32]?
Answer: 53

Question: What about the mean fluorescent intensity (MFI) [33] of the same molecule?
Answer: 508

Question: And the mean fluorescent intensity (MFI) [34]?
Answer: 5

Question: What about the mean fluorescent intensity (MFI) [35] of the same molecule?
Answer: 347

Question: And the mean fluorescent intensity (MFI) [36]?
Answer: 3030

Question: And the mean fluorescent intensity (MFI) [37]?
Answer: 244

Question: What about the mean fluorescent intensity (MFI) [38] of the same molecule?
Answer: 7
